The subject of test [1] is UM-UC-3 Nectin4 clone F7 xenograft. Briefly: Tumor xenograft, high nectin-4 expression. In kind it is in vivo, mice (nu/nu). Particulars: UMUC3 Nectin-4 clone F7 xenograft, single dose 2 mg/kg, day 40. On the procedure:
In order to test the efficacy of the nectin-4 ADCs of the present disclosure, which have effector null mutations in the Fc region, and to compare to the enfortumab antibody, which has wildtype Fc and in an ADC with the same payload background as the ones of this disclosure, two tumor xenograft models with either high or moderate nectin-4 expression were tested as described. Immune compromised female mice (nu/nu) between 5-8 weeks of age with weight 18-20 grams were implanted unilaterally on the right flank with UM-UC-3 Nectin4 clone F7 cells with high nectin-4 expression. […] The test articles were given at a single dose (2 mg/kg) formulated with 5% dextrose. Tumors were measured biweekly until Day 40.

For a further test, the system named is MDA-MB-468 xenograft. Description: Tumor xenograft, moderate nectin-4 expression. Format: in vivo, NSG mice. The conditions noted are these: MDAMB468 xenograft, single dose 2 mg/kg, day 71. The method, then: In a separate study, female NSG mice between 5-6 weeks of age were injected subcutaneously with MDA-MB-468 cells with moderate Nectin-4 expression. When tumors reached approximately 150-250 mm^3; animals were matched by tumor volume into treatment or control groups and dosing initiated (Day 0, n=8 per group). The test articles were given at a single dose (2 mg/kg) formulated with 5% Dextrose. Tumors were measured biweekly until Day 71.
In both models, a 2 mg/kg single dose treatment of either the nectin-4 ADCs (exemplified herein with each of Abs1-8 conjugated as in Formula XI, and with a DAR of 8) or benchmark enfortumab ADC (enfortumab conjugated with Formula XI, and with a DAR of 8) was used. Tumor growth was measured at day 40 for UMUC3 Nectin-4 clone F7 and day 71 for MDAMB468 xenografts.

We go through 5 molecules from patent US20250000991A1, “NECTIN-4 ANTIBODIES AND ANTIBODY-DRUG CONJUGATES” (Eli Lilly and Company, priority 2023, published 2025).

B1: Ab6 ADC: Ab6 conjugated as in Formula XI, and with a DAR of 8 (conjugate)
heavy: QVQLVQSGAEVKKPGASVKVSCKASGYTFTGYYMHWVRQAPGQGLEWMGIINPSGGSTTYAQKFQGRVTMTRDTSTSTVYMELSSLRSEDTAVYYCARGRLGTYFDYWGQGTLVTVSSASTKGPSVFPLAPSSKSTSGGTAALGCLVKDYFPEPVTVSWNSGALTSGVHTFPAVLQSSGLYSLSSVVTVPSSSLGTQTYICNVNHKPSNTKVDKRVEPKSCDKTHTCPPCPAPEAAGGPSVFLFPPKPKDTLMISRTPEVTCVVVSVSHEDPEVKFNWYVDGVEVHNAKTKPREEQYNSTYRVVSVLTVLHQDWLNGKEYKCKVSNKALPAPIEKTISKAKGQPREPQVYTLPPSREEMTKNQVSLTCLVKGFYPSDIAVEWESNGQPENNYKTTPPVLDSDGSFFLYSKLTVDKSRWQQGNVFSCSVMHEALHNHYTQKSLSLSPGK
light: SYVLTQPPSVSVAPGQTARITCGGNNIGSKSVHWYQQKPGQAPVLVVYDDSDRPSGIPERFSGSNSGNTATLTISRVEAGDEADYYCQVWDRSSDQVVFGGGTKLTVLGQPKAAPSVTLFPPSSEELQANKATLVCLISDFYPGAVTVAWKADSSPVKAGVETTTPSKQSNNKYAASSYLSLTPEQWKSHRSYSCQVTHEGSTVEKTVAPTECS
As for B1, the Mean tumor volume in test [1] is 866.94 mm^3; in the test on MDA-MB-468 xenograft, 304.9 mm^3.

B2: Ab1a ADC: Ab1a conjugated as in Formula XI, and with a DAR of 8 (conjugate)
heavy: QVQLVQSGAQVKKPGASVKVSCKASGYTFTGYYIHWVRQAPGQGLEWMGWINPNSGGTNYAQKFQGRVTMTRDTSISTAYMELSRLRSDDTAVYFCAREDWDFDYWGQGTLVTVSSASTKGPSVFPLAPSSKSTSGGTAALGCLVKDYFPEPVTVSWNSGALTSGVHTFPAVLQSSGLYSLSSVVTVPSSSLGTQTYICNVNHKPSNTKVDKRVEPKSCDKTHTCPPCPAPEAAGGPSVFLFPPKPKDTLMISRTPEVTCVVVSVSHEDPEVKFNWYVDGVEVHNAKTKPREEQYNSTYRVVSVLTVLHQDWLNGKEYKCKVSNKALPAPIEKTISKAKGQPREPQVYTLPPSREEMTKNQVSLTCLVKGFYPSDIAVEWESNGQPENNYKTTPPVLDSDGSFFLYSKLTVDKSRWQQGNVFSCSVMHEALHNHYTQKSLSLSPGK
light: EIVLTQSPGTLSLSPGERATLSCRTSQSVSSSYLAWYQQKPGQAPRLLIYGASNRATDIPDRFSGSGSGTDFTLTINRLEPEDFAVYYCQQYGSSPITFGQGTRLEIKRTVAAPSVFIFPPSDEQLKSGTASVVCLLNNFYPREAKVQWKVDNALQSGNSQESVTEQDSKDSTYSLSSTLTLSKADYEKHKVYACEVTHQGLSSPVTKSFNRGEC
On to B2, for which the Mean tumor volume in test [1] was 234.79 mm^3; in the test with MDA-MB-468 xenograft, 135.24 mm^3.

B3: Ab3 ADC: Ab3 conjugated as in Formula XI, and with a DAR of 8 (conjugate)
heavy: EVQLVESGGGLVKPGGSLRLSCAASGFNLNHYNMNWVRQAPGKGLEWVSSVSSGGGFRYYADSVRGRFTISRDNAKNSLYLQMNSLRAEDTAVYYCARGAVFHDAFDIWGQGTLVTVSSASTKGPSVFPLAPSSKSTSGGTAALGCLVKDYFPEPVTVSWNSGALTSGVHTFPAVLQSSGLYSLSSVVTVPSSSLGTQTYICNVNHKPSNTKVDKRVEPKSCDKTHTCPPCPAPEAAGGPSVFLFPPKPKDTLMISRTPEVTCVVVSVSHEDPEVKFNWYVDGVEVHNAKTKPREEQYNSTYRVVSVLTVLHQDWLNGKEYKCKVSNKALPAPIEKTISKAKGQPREPQVYTLPPSREEMTKNQVSLTCLVKGFYPSDIAVEWESNGQPENNYKTTPPVLDSDGSFFLYSKLTVDKSRWQQGNVFSCSVMHEALHNHYTQKSLSLSPGK
light: DIQLTQSPSFLSASVGDRVTITCRASQDISSYLAWYQQKPGKAPKLLIYVASTLQSGVPSRFSGSGSGTEFTLTISSLQPEDFATYYCQQINSYPFTFGQGTKVEIKRTVAAPSVFIFPPSDEQLKSGTASVVCLLNNFYPREAKVQWKVDNALQSGNSQESVTEQDSKDSTYSLSSTLTLSKADYEKHKVYACEVTHQGLSSPVTKSFNRGEC
Consider B3, for which the Mean tumor volume in test [1] came out at 993.45 mm^3; in the test with MDA-MB-468 xenograft, 366.45 mm^3.

B4: Ab4 ADC: Ab4 conjugated as in Formula XI, and with a DAR of 8 (conjugate)
heavy: QVQLQESGPGLVKPSETLSLTCTVSGGSISGYYWSWIRQPPGKGLEWIGYIYYSGSTNYNPSLKSRVTISVDTSKNQFSLKLSSVTAADTAVYYCARLGIFFDAFDIWGQGTLVTVSSASTKGPSVFPLAPSSKSTSGGTAALGCLVKDYFPEPVTVSWNSGALTSGVHTFPAVLQSSGLYSLSSVVTVPSSSLGTQTYICNVNHKPSNTKVDKRVEPKSCDKTHTCPPCPAPEAAGGPSVFLFPPKPKDTLMISRTPEVTCVVVSVSHEDPEVKFNWYVDGVEVHNAKTKPREEQYNSTYRVVSVLTVLHQDWLNGKEYKCKVSNKALPAPIEKTISKAKGQPREPQVYTLPPSREEMTKNQVSLTCLVKGFYPSDIAVEWESNGQPENNYKTTPPVLDSDGSFFLYSKLTVDKSRWQQGNVFSCSVMHEALHNHYTQKSLSLSPGK
light: DIQLTQSPSFLSASVGDRVTITCRASQGISSYLAWYQQKPGKAPKLLIYAASTLQSGVPSRFSGSGSGTEFTLTISSLQPEDFATYYCQQFNSYPWTFGQGTKVEIKRTVAAPSVFIFPPSDEQLKSGTASVVCLLNNFYPREAKVQWKVDNALQSGNSQESVTEQDSKDSTYSLSSTLTLSKADYEKHKVYACEVTHQGLSSPVTKSFNRGEC
Take B4: the Mean tumor volume in test [1] worked out at 928.09 mm^3; in the test on MDA-MB-468 xenograft it was 343.65 mm^3.

B5: Ab5 ADC: Ab5 conjugated as in Formula XI, and with a DAR of 8 (conjugate)
heavy: QVQLVQSGAEVKKPGASVKVSCKASGYTFTSYYVHWVRQAPGQGLEWMGIINPSIISTSYAQKFQARVTMTRDTSTSTVYMELSSLRSEDTAVYYCARGLNFDAFDIWGQGTLVTVSSASTKGPSVFPLAPSSKSTSGGTAALGCLVKDYFPEPVTVSWNSGALTSGVHTFPAVLQSSGLYSLSSVVTVPSSSLGTQTYICNVNHKPSNTKVDKRVEPKSCDKTHTCPPCPAPEAAGGPSVFLFPPKPKDTLMISRTPEVTCVVVSVSHEDPEVKFNWYVDGVEVHNAKTKPREEQYNSTYRVVSVLTVLHQDWLNGKEYKCKVSNKALPAPIEKTISKAKGQPREPQVYTLPPSREEMTKNQVSLTCLVKGFYPSDIAVEWESNGQPENNYKTTPPVLDSDGSFFLYSKLTVDKSRWQQGNVFSCSVMHEALHNHYTQKSLSLSPGK
light: DIQLTQSPSFLSASVGDRVTITCRASQGISSYLAWYQQKPGKAPKLLIYAASTLQSGVPSRFSGSGSGTEFTLTISSLQPEDFATYYCQQLNNYPFTFGQGTKVEIKRTVAAPSVFIFPPSDEQLKSGTASVVCLLNNFYPREAKVQWKVDNALQSGNSQESVTEQDSKDSTYSLSSTLTLSKADYEKHKVYACEVTHQGLSSPVTKSFNRGEC
Take B5: the Mean tumor volume stood at 632.99 mm^3 in test [1] and 220.38 mm^3 in the test on MDA-MB-468 xenograft.
